Assay results taken from paper PMC7003851.

Assays:
IRP1 wild-type [1] = target: T1, IRP1 wild-type (Homo sapiens, UniProt P21399 1-889); test: EMSA
T1 sequence: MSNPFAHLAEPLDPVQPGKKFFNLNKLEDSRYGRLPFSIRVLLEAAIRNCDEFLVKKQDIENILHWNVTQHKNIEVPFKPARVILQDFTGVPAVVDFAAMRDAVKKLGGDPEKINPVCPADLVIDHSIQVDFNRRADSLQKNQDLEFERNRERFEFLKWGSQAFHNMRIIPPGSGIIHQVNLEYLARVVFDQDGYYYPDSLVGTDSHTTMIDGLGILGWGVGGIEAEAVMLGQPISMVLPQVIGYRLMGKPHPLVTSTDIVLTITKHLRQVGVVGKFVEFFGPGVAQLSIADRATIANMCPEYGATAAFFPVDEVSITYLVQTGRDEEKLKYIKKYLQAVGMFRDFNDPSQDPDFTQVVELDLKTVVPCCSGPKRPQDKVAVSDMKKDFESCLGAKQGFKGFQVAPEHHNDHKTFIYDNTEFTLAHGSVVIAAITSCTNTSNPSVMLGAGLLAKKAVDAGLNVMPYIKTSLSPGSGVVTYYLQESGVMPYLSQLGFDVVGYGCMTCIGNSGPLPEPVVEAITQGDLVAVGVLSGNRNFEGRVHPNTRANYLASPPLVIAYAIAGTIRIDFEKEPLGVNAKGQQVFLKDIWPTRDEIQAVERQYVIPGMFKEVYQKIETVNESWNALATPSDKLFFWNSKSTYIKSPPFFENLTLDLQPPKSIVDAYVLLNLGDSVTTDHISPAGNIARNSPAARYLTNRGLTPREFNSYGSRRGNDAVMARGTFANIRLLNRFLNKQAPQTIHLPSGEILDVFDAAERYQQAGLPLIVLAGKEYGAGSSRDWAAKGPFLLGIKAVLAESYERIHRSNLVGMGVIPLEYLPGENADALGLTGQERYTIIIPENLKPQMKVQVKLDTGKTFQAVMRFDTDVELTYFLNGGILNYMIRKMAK

IRP1 wild-type [2] = target: T1, IRP1 wild-type; test: EMSA; remark: listed apart in the source

With UUUUUGUUUCCUGCUUCAACAGUGCUUGGACGGAAC (structured_RNA) [wt-IRE (FTH-IRE)] the Kd (IRP1 wild-type [1]) was 0.018 ± 0.005 µM.

With UUUUUGUUUCCUGCUUCAAAGUGCUUGGACGGAAC (structured_RNA) [IRE-ΔC] the binding signal (IRP1 wild-type [2]) was ~5 fold unbound RNA fraction vs wt-IRE.
